Test results reported in PMC3563936.

Target: T1, Dpo4 (Y-family DNA polymerase) (Sulfolobus solfataricus, UniProt Q97W02 1-352)
T1 sequence: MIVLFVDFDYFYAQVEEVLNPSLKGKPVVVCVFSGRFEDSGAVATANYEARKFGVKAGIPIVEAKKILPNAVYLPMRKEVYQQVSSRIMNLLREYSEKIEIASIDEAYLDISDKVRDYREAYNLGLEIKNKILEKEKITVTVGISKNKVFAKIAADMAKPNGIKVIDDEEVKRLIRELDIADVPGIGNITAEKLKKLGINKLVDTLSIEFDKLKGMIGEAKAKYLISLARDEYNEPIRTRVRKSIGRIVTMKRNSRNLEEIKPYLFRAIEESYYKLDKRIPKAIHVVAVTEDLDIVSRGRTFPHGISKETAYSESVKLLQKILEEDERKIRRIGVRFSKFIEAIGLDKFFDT
Assay: X-ray crystallography

B1: 14/18-mer primer/template DNA (dsDNA)
DNA 1: GGGGGAAGGATTCC
DNA 2: TCATGGAATCCTTCCCCC
binding result: binds
